Legend:
[1] = target: GST-Shroom3 SD2 R1838A (mouse) (UniProt Q9QXN0); test: pull-down; GST-Shroom3 SD2 variants bound to glutathione beads, His-tagged hRock1 SBD soluble; 2 hours at room temperature; washed with NETN; SDS-PAGE, Coomassie Blue
[2] = target: GST-Shroom3 SD2 R1838C (mouse) (UniProt Q9QXN0); test: as above

Sequence of UniProt Q9QXN0 (Q9QXN0 1562-1986, stated change not applied): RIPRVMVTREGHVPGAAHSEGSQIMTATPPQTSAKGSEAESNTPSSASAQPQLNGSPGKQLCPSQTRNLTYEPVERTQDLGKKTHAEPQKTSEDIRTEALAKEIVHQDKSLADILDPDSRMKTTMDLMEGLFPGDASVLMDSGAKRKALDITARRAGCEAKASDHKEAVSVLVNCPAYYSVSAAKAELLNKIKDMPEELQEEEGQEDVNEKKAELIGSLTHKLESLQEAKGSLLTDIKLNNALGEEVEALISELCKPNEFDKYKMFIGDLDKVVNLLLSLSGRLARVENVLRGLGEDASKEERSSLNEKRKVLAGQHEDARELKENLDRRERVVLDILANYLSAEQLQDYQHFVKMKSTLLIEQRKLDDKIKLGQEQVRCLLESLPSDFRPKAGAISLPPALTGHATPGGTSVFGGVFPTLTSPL

“His-tagged human Rock1 Shroom-Binding domain (SBD), amino acids 707-946 (from UniProt Q13464 707-946) (domain or fragment)” gave a percent reduction in binding relative to wild type [1] of 45% and a percent reduction in binding relative to wild type [2] of 95%.
